This test can be described thus: Parallel one-pot glycoside synthesis (transglycosylation to MeOH). It counts as biochemical. The following applies: 50° C., 1:9 MeOH:phosphate buffer pH 6.5. On the procedure:
Enzyme (WT, […] or E432C, 1 mg) was added to a mixed solution (1 mL) of para-nitrophenyl (pNP) β-D-manno-, galacto-, gluco- and xylo- pyranosides (0.03 mmol of each) in 1:9 MeOH:phosphate buffer (pH 6.5) and incubated at 50° C. for 45 min (WT), 4 h (WT), 8 h (W433C, E432C). After this time the solutions were extracted with EtOAc to remove para-nitrophenol and passed through short Sephadex and Celite:Graphite (1:1) columns to remove protein, pNP-glycoside and remaining para-nitrophenol. Solvent was removed and product mixtures were analysed by ^1H NMR and ESMS. Yields based on donor were calculated from integration of anomeric proton resonances in ^1H NMR (D2O, 500 MHz): α-Gal (δ 5.12, d, […]), α-Glc (δ 5.08, d, 3.8 Hz), α-Xyl (δ 5.04, d, J=3.4 Hz), α-Man (δ 5.03, d, J=1.8 Hz), β-Man (δ 4.75, s), β-Glc (δ 4.49, d, J=8.0 Hz), P-Gal (δ 4.45, d, 7.9 Hz), Me-β-Man (δ 4.44, s), β-Xyl (δ 4.42, d, J=7.8 Hz), Me-β-Glc (δ 4.23, d, J 8.1 Hz), Me-β-Xyl (δ 4.18, d, J=7.8 Hz), Me-β-Gal (δ 4.17, d, J=8.0 Hz).
Scheme 1: Parallel glycoside syntheses using SSβG-WT, -E432C and -W433C as catalysts. […] Such balanced libraries are not produced by SSβG-WT even under varying reaction times.

B1: WT: Wild type β-glycosidase from Sulfolobus solfataricus (SEQ ID NO: 2), recombinant with N-terminal His6-tag (protein, listed as Sulfolobus solfataricus)
chain: MYSFPNSFRFGWSQAGFQSEMGTPGSEDPNTDWYKWVHDPENMAAGLVSGDLPENGPGYWGNYKTFHDNAQKMGLKIARLNVEWSRIFPNPLPRPQNFDESKQDVTEVEINENELKRLDEYANKDALNHYREIFKDLKSRGLYFILNMYHWPLPLWLHDPIRVRRGDFTGPSGWLSTRTVYEFARFSAYIAWKFDDLVDEYSTMNEPNVVGGLGYVGVKSGFPPGYLSFELSRRHMYNIIQAHARAYDGIKSVSKKPVGIIYANSSFQPLTDKDMEAVEMAENDNRWWFFDAIIRGEITRGNEKIVRDDLKGRLDWIGVNYYTRTVVKRTEKGYVSLGGYGHGCERNSVSLAGLPTSDFGWEFFPEGLYDVLTKYWNRYHLYMYVTENGIADDADYQRPYYLVSHVYQVHRAINSGADVRGYLHWSLADNYEWASGFSMRFGLLKVDYNTKRLYWRPSALVYREIATNGAITDEIEHLNSVPPVKPLRH
modifications: N-terminal His6 tag
Turning to B1, where the note is “45 min”, the “Yield of Products, product 1 (β-glycoside of Glc)” value stood at 40%; the “Yield of Products, product 2 (β-glycoside of Gal)” value came to 33%; the “Yield of Products, product 3 (β-glycoside of Man)” value was determined as 2%; the “Yield of Products, product 4 (β-glycoside of Xyl)” value was determined as 3%. Under “45 min”, the “Yield of Products, product 5” value is reported as 14% and the “Yield of Products, product 6” value amounted to 8%. Also, for the setting “4 h”, the “Yield of Products, product 3 (β-glycoside of Man)” value was found to be 8%; the “Yield of Products, product 4 (β-glycoside of Xyl)” value came out at 20%; the “Yield of Products, product 5” value amounted to 33%; the “Yield of Products, product 6” value is given as 30%. For the setting “4 h”, the “Yield of Products, product 7” value stood at 4% and the “Yield of Products, product 8” value was found to be 5%.

(Values after US20090181444A1, “MODIFIED CARBOHYDRATE PROCESSING ENZYME” (priority 2002, published 2009).)
